The source of these data is patent publication US20130064836A1 (Novartis, published 2013).

In assay [1] the target is T1, human complement C5 protein (human, UniProt P01031 19-673; P01031 678-1676, Beta and alpha chains are joined by disulfide bonds. C5 was biotinylated in some assays.).
Assay [2] deals with T1, human complement C5 protein. This is another data set of the same source.
Assay [3] addresses cynomolgus C5 (Macaca fascicularis) (cynomolgus (Macaca fascicularis)).
Assay [4] concerns the target T1, human complement C5 protein. This is another data set of the same source.
For assay [5] the target is unchanged. The source holds these as a separate data set.
The target is the same in assay [6]. Put plainly: SET (MSD), IgG, 1st measurement. The method, then: (§1) In order to improve the sensitivity and accuracy of the SET method, it was transferred from classical ELISA to ECL based technology (Haenel et al., Anal Biochem 339:182-184 (2005)).
(§2) 1 mg/ml goat-anti-human (Fab)₂ fragment specific antibodies (Dianova) were labelled with ECL Sulfo-TAG™ NHS-Ester (Meso Scale Discovery, Gaithersburg, Md., USA) according to the manufacturer's instructions. The experiments were carried out in polypropylene microliter plates and PBS pH 7.4 with 0.5% BSA and 0.02% Tween 20 as assay buffer. […] Wells without antigen were used to determine Bmax values; wells containing neither antigen nor IgG were used to determine background. After addition of e.g. 10 pM IgG (final concentration in 60 μl final volume), the mixture was incubated over night at RT. The applied IgG concentration was similar to or below the expected KD.
(§3) Streptavidin MSD plates were coated with 0.2 μg/ml biotinylated human C5 (30 μl/well) and blocked with 5% BSA in PBS. Subsequently the equilibrated samples were transferred to those plates (30 μl per well) and incubated for 20 min. After washing, 30 μl/well of the ECL Sulfo-tag labeled detection antibody (goat anti-human (Fab)₂) in a final dilution of 1:1500 was added to the MSD plate and incubated for 30 min on an Eppendorf shaker (700 rpm).

For assay [7] the target is unchanged. Nature of the assay: SET (MSD), IgG, 2nd measurement. As for the experimental part:
as §1, §2, §3

The target is the same in assay [8]. Put plainly: SPR (Biacore), IgG captured via anti-human Fc, C5 injected. As for the experimental part:
(§4) A CM4 chip was coated with 50 μg/ml goat anti-human Fc antibody (500-2000 RU) in 10 mM acetate buffer, pH 4.5, using standard EDC-NHS amine coupling chemistry. Each anti-human C5 IgG was captured on the chip in HBS-EP buffer at constant flow rate of 10 μl/min for a contact time leading to a ligand density around 20 RU. […] Each cycle was completed with two regeneration steps with phosphoric acid. All running conditions were carried out at 25° C. in 1× HBS-EP buffer. The resulting signals were adjusted by double referencing, substracting the refraction index values from the reference flow cell and the binding step with no analyte. Data were collected at 10 Hz and analyzed using the Biacore T100 Evaluation Software Version 1.1 (GE). This program uses a global fitting analysis method for the determination of rate and affinity constants for each interaction. […]
Background: In SPR one partner is held on a chip, and binding of the other changes the refractive index at the surface.

Assay [9] shares this target. Nature of the assay: cell-based or functional assay.
Assay [10] addresses T2, cynomolgus C5 (Macaca fascicularis) (cynomolgus (Macaca fascicularis), Beta and alpha chains are joined by disulfide bonds; the protein is a serum glycoprotein.).
T2 beta: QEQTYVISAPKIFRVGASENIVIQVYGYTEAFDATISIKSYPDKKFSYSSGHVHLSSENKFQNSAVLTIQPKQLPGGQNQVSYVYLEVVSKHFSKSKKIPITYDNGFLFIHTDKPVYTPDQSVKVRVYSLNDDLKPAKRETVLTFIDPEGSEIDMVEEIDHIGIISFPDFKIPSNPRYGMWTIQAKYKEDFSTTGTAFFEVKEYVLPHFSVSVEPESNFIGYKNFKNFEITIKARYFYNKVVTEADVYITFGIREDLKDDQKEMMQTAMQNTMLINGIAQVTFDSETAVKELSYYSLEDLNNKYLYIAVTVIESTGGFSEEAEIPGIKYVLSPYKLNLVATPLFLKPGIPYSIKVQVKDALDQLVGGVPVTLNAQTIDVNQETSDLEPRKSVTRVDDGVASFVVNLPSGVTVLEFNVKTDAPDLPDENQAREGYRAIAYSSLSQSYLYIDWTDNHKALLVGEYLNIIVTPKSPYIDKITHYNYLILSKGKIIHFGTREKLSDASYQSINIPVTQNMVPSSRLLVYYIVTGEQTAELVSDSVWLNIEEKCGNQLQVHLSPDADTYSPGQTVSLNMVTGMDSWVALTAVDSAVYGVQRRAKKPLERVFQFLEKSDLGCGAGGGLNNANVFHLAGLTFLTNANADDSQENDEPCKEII
T2 alpha: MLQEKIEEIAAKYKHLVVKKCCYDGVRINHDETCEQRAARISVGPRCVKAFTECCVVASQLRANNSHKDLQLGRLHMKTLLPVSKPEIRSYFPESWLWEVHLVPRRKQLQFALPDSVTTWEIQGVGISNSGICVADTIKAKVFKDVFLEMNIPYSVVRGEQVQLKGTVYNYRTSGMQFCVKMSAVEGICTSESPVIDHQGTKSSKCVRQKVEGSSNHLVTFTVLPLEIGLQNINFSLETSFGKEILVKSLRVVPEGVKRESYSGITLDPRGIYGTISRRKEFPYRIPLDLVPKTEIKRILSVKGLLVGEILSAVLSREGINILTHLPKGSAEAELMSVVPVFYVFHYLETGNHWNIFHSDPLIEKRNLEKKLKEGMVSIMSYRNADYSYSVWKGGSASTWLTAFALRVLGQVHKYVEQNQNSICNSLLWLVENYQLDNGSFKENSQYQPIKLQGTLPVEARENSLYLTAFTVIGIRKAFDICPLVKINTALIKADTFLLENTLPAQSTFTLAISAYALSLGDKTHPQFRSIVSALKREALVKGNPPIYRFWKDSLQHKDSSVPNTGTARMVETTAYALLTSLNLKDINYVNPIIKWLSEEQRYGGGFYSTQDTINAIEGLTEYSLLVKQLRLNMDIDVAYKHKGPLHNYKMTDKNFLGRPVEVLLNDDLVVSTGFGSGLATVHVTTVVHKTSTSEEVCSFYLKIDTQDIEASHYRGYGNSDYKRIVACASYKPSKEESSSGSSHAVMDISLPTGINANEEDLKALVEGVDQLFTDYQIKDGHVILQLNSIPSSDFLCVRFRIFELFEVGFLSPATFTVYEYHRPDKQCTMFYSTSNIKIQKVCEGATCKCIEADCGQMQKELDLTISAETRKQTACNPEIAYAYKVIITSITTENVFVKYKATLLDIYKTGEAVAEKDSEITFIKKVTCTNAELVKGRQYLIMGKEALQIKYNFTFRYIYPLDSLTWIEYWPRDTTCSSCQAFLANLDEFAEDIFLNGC
Put plainly: cell-based or functional assay.

Assay [11] has as its target T1, human complement C5 protein. Put plainly: cell-based or functional assay. The source holds these as a separate data set.
For assay [12], the target named is T2, cynomolgus C5 (Macaca fascicularis). Nature of the assay: SET (MSD), IgG, 1st measurement. As for the experimental part:
as §1, §2, §3

For assay [13] the target is unchanged. Nature of the assay: SET (MSD), IgG, 2nd measurement. As for the experimental part:
as §1, §2, §3

For assay [14] the target is unchanged. Nature of the assay: SPR (Biacore), IgG captured via anti-human Fc, C5 injected. The method, then:
as §4

Assay [15] concerns the target T1, human complement C5 protein. Nature of the assay: cell-based or functional assay. This is another data set of the same source.
For the next assay, the target named is T3, human complement C3 (human, UniProt P01024 23-667; P01024 672-1663).
T3 construct: Counter target in the ELISAs, coated directly or biotinylated; also called human C3
Put plainly: solution ELISA: Fab with biotinylated antigen on NeutrAvidin plate, His-tag detection [huC3 panel]. As for the experimental part:
Fabs were incubated with biotinylated antigen on a Neutravidin plate and detected via the histidin tag.
In general terms: An ELISA detects its analyte on a solid surface through an enzyme-linked reagent.

Where a chain is given by its changes, count along the chain named. Where two headings read alike, the source gives them in different places.

T3 sequence (P01024 23-667 limits assumed, chain 1 of 2): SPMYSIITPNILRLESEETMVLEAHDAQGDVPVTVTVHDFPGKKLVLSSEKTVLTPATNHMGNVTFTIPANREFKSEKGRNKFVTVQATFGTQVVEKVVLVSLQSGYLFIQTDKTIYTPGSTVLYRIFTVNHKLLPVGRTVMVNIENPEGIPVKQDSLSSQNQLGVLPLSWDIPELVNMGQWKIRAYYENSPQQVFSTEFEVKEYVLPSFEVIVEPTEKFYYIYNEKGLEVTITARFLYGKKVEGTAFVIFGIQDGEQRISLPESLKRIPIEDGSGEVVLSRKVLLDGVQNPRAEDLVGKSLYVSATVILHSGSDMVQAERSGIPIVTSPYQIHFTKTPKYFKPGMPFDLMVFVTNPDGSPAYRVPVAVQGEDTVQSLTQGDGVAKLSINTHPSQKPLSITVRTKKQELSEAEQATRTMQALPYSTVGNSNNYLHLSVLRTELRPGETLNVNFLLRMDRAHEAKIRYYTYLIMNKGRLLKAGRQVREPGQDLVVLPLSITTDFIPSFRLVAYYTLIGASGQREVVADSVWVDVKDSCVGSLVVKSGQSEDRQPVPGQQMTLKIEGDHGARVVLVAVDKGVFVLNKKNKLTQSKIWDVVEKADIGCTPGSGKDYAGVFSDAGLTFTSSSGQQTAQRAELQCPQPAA
T3 sequence (P01024 672-1663 limits assumed, chain 2 of 2): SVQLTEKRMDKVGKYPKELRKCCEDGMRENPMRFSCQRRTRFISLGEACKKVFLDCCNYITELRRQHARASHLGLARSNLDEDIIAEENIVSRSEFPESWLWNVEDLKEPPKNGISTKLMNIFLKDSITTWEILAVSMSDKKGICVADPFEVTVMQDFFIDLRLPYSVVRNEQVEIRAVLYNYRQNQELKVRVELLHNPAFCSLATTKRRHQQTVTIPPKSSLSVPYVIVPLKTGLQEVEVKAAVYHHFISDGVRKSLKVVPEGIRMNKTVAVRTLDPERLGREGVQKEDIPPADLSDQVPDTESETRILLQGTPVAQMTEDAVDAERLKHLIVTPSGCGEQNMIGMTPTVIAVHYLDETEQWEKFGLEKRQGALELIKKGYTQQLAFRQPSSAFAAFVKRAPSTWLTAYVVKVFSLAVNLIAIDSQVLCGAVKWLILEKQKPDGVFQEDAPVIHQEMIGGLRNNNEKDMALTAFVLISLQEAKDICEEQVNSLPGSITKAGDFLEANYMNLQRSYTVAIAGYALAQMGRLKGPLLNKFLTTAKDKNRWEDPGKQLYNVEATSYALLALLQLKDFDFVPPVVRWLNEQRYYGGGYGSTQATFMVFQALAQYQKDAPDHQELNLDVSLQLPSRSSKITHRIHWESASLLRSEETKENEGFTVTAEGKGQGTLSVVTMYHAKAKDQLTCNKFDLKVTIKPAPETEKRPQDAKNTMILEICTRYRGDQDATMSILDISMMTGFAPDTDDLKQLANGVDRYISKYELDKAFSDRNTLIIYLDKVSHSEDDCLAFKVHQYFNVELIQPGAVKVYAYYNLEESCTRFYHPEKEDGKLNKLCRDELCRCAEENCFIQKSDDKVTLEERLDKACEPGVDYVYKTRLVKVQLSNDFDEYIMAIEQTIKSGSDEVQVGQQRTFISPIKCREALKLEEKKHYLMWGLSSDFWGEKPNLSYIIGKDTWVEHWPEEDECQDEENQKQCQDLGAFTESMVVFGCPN

With 5G1.1 (antibody), the IC50; hemolysis AP, 100 pM human C5 [panel a] in [1] was 0.14 nM. In [1], this molecule showed an IC50; hemolysis AP, 100 pM human C5 [panel c] of 0.205 nM. For the same molecule, the IC50; hemolysis AP, 100 pM human C5 [panel i] in assay [2] worked out at 0.0582 nM. Also, the IC50; hemolysis AP, 100 pM cyno C5 in 20% human C5-depleted serum [panel a] in [3] turned out to be 1.71 nM. Further, in assay [4], the IC50 (read off the curve); hemolysis AP, 100 pM human C5 [panel b] was 0.09 nM. For the same molecule, in [5], the IC50 (read off the curve); C5a ELISA on AP hemolysis supernatants, 20% human serum [panel d] was 20 nM. For the same molecule, the IC50 (read off the curve); hemolysis AP, 20% human serum [panel c] in assay [5] is 50 nM. For the same molecule, the Kd (as a rule, the free concentration of one partner at which half of the binding sites on the other are occupied at equilibrium, for simple one-to-one binding) was determined as 0.024 nM in assay [6], 0.019 nM in assay [7] and 0.056 nM in [8].

B1: MOR08111 (antibody, human IgG1, lambda, L234A L235A, V domains shown)
VH: EVTLKESGPALVKPTQTLTLTCTFSGFSLSTSGGGVSWIRQPPGKALEWLANIDDADIKDYSPSLKSRLTISKDTSKNQVVLTMTNMDPVDTATYYCARGPYGFDSWGQGTLVTVSS
VL: ESALTQPASVSGSPGQSITISCTGTSSDIGTYNYVSWYQQHPGKAPKLMIYDDSNRPSGVSNRFSGSKSGNTASLTISGLQAEDEADYYCQSYDSQSIVFGGGTKLTVLG
notes: Germlined final IgG, human IgG1AA format
In the case of B1, the “IC50; hemolysis CP, 20% human serum” value in assay [9] came to 21.5 nM. In addition, in assay [10], the “IC50 (read off the curve); hemolysis CP, 5% cyno serum” value was approximately 20 nM. Also, the “IC50 (read off the curve); hemolysis AP, 100 pM human C5 [panel a]” value in [11] was approximately 0.1 nM. Further, the dissociation constant (Kd) in assay [6] was found to be 0.005 nM; in assay [12], 0.014 nM; in assay [7] it was 0.003 nM; in assay [13], 0.017 nM; in assay [8], 0.031 nM; in assay [14] it was 0.144 nM. For the same molecule, the koff (commonly a measure of how fast the partners let go of each other) in assay [8] was determined as 3.07e-05 s⁻¹; in assay [14] it was 0.000128 s⁻¹. The kon – broadly, the rate constant with which the complex forms – in assay [8] was 1e+06 M⁻¹ s⁻¹; in assay [14], 891000 M⁻¹ s⁻¹.

B2: MOR08114 (antibody, human IgG1, lambda, L234A L235A, V domains shown)
VH: EVQLVQSGAEVKKPGESLKISCKGSGYSFTSYYIGWVRQMPGKGLEWMGIIDPTDSQTAYSPSFQGQVTISADKSISTAYLQWSSLKASDTAMYYCARYMMRGFDHWGQGTLVTVSS
VL: SYELTQPPSVSVAPGQTARISCSGDSLGDYYAYWYQQKPGQAPVLVIYKDNNRPSGIPERFSGSNSGNTATLTISGTQAEDEADYYCQTWDTGESGVFGGGTKLTVLG
notes: Germlined final IgG, human IgG1AA format; also called Antibody 8114
B2: the “IC50; hemolysis CP, 20% human serum” value in assay [9] was 34.1 nM. Besides, the “IC50 (read off the curve); hemolysis CP, 5% cyno serum” value in [10] is approximately 30 nM. Also, in [11], the “IC50 (read off the curve); hemolysis AP, 100 pM human C5 [panel c]” value was approximately 0.02 nM. In addition, the “IC50 (read off the curve); hemolysis AP, 20% human serum [panel c]” value in [15] was approximately 50 nM. Besides, the Kd was found to be 0.001 nM in assay [6]; 0.005 nM in assay [12]; 0.002 nM in assay [7]; 0.004 nM in assay [13]; 0.015 nM in assay [8]; 0.031 nM in [14]. Further, the koff was 3.12e-05 s⁻¹ in assay [8] and 3.13e-05 s⁻¹ in assay [14]. In addition, the kon in [8] is 2.09e+06 M⁻¹ s⁻¹; in [14], 1.06e+06 M⁻¹ s⁻¹.

B3: MOR07872 (Fab, V domains shown)
VH: B2 VH with E1Q, T54S, Q57H, A59T
VL: DIELTQPPSVSVAPGQTARISCSGDSLGDYYAYWYQQKPGQAPVLVIYKDNNRPSGIPERFSGSNSGNTATLTISGTQAEDEADYYCQTWDILPHGLVFGGGTKLTVLG
notes: light CS or A
For B3, in the assay with human complement C3, the binding result is “no binding (tested: 100 nM)”.

B4: MOR07873 (Fab, V domains shown)
VH: B2 VH with E1Q, T54S, Q57H, A59T
VL: B3 VL with T89A, D91T, I92D, L93S, H95T
notes: light CS or A
For the molecule B4, the binding result with human complement C3 is on record as “no binding (tested: 100 nM)”.
